The text below walks through data of article PMC11198818, “Positive charges promote the recognition of proteins by the chaperone SlyD from Escherichia coli” (PLOS ONE, 2024).

One may read the Kd as the concentration at which binding is half-saturated. Read a high Kd as weaker binding. Broadly, the stoichiometry N is a count of units in the complex or per binding partner.

Common to all, as to experiment: ITC; VP-ITC (MicroCal), 30°C, 10 mM potassium phosphate buffer pH 7.6 or 7.8; SlyD or its variant 30 uM in the calorimetric cell, HiPIP precursor (RR-HiPIP) injected: 100 uM, 2x 22 injections of 10 uL (Fig 4); 200 uM, 23 injections of 10 uL (Fig 3)
Conditions in all cases: both partners purified

Assay [1] deals with T1, SlyD F84N, C-terminally hexahistidine-tagged (E. coli, UniProt P0A9K9 1-196, F84N).
T1 construct: FKBP-type peptidyl-prolyl cis-trans isomerase SlyD, E. coli; the tag is fused to the C-terminal domain; not shown: His6, C-terminal, kept
T1 sequence: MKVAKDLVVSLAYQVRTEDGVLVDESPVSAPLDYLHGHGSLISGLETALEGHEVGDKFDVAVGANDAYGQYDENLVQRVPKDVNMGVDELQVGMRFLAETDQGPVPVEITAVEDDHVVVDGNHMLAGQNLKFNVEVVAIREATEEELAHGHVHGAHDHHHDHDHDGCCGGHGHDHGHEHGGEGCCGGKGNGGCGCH

In assay [2] the target is T2, SlyD F96N, C-terminally hexahistidine-tagged (E. coli, UniProt P0A9K9 1-196, F96N).
T2 construct: FKBP-type peptidyl-prolyl cis-trans isomerase SlyD, E. coli; the tag is fused to the C-terminal domain; not shown: His6, C-terminal, kept
T2 sequence: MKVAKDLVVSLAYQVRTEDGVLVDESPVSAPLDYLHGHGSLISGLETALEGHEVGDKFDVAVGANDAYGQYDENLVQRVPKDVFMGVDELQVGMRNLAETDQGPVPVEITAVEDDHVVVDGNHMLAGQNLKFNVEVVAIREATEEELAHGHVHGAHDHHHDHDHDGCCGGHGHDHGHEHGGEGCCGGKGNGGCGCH

Assay [3] concerns the target T3, SlyD F96A, C-terminally hexahistidine-tagged (E. coli, UniProt P0A9K9 1-196, F96A).
T3 construct: FKBP-type peptidyl-prolyl cis-trans isomerase SlyD, E. coli; the tag is fused to the C-terminal domain; not shown: His6, C-terminal, kept
T3 sequence: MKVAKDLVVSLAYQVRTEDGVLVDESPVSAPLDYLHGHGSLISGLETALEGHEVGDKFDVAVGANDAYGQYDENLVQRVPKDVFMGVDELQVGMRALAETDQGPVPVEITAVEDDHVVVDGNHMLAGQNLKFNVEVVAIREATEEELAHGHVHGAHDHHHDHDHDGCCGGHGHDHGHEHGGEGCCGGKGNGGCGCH

The target of assay [4] is T4, SlyD E73A, C-terminally hexahistidine-tagged (E. coli, UniProt P0A9K9 1-196, E73A).
T4 construct: FKBP-type peptidyl-prolyl cis-trans isomerase SlyD, E. coli; the tag is fused to the C-terminal domain; not shown: His6, C-terminal, kept
T4 sequence: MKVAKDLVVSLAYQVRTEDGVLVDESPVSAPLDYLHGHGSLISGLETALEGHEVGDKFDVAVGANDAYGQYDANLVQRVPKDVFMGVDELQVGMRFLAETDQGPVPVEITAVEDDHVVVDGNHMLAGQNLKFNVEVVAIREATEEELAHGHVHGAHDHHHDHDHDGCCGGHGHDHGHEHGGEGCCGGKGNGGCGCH

The target of assay [5] is T5, SlyD D115A, C-terminally hexahistidine-tagged (E. coli, UniProt P0A9K9 1-196, D115A).
T5 construct: FKBP-type peptidyl-prolyl cis-trans isomerase SlyD, E. coli; the tag is fused to the C-terminal domain; not shown: His6, C-terminal, kept
T5 sequence: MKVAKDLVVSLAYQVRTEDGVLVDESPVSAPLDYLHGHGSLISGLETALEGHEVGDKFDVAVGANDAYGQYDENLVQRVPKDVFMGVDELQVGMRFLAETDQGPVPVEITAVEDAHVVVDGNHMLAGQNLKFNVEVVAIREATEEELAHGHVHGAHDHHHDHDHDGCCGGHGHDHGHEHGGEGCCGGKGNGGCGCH

The target of assay [6] is T6, SlyD D101A, C-terminally hexahistidine-tagged (E. coli, UniProt P0A9K9 1-196, D101A).
T6 construct: FKBP-type peptidyl-prolyl cis-trans isomerase SlyD, E. coli; the tag is fused to the C-terminal domain; not shown: His6, C-terminal, kept
T6 sequence: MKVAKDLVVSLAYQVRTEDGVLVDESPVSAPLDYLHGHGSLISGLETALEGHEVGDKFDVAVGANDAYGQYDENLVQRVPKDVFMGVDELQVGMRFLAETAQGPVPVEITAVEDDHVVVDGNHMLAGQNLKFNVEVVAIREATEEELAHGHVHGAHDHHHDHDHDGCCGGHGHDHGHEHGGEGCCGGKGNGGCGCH

Assay [7] has as its target T7, SlyD F84A, C-terminally hexahistidine-tagged (E. coli, UniProt P0A9K9 1-196, F84A).
T7 construct: FKBP-type peptidyl-prolyl cis-trans isomerase SlyD, E. coli; the tag is fused to the C-terminal domain; not shown: His6, C-terminal, kept
T7 sequence: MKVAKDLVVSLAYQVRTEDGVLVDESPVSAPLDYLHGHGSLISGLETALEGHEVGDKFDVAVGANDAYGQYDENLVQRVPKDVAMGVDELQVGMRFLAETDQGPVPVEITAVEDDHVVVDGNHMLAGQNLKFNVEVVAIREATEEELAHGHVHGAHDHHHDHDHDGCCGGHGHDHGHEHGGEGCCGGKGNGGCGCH

B1: HiPIP precursor (RR-HiPIP) from Allochromatium vinosum (natural protein)
chain: MSDKPISKSRRDAVKVMLGTAAAIPMINLVGFGTARASAPANAVAADDATAIALKYNQDATKSERVAAARPGLPPEEQHCANCQFMQADAAGATDEWKGCQLFPGKLINVNGWCASWTLKAG
modifications: HiPIP precursor; fully folded, [4Fe-4S] cluster presumed; signal peptide retained
Consider B1, for which the Kd in assay [1] turned out to be 6.62 ± 0.2 µM; in assay [2] it was 8.85 ± 2.78 µM; in assay [3], 4.88 ± 0.54 µM; in assay [4] it was 320 ± 20 nM; in assay [5], 270 ± 20 nM. Moreover, the “stoichiometry N” value in assay [1] was determined as 0.532 ± 0.004; in assay [2], 0.628 ± 0.036; in assay [3], 0.66 ± 0.013; in assay [4] it was 0.616 ± 0.003; in assay [5], 0.541 ± 0.026; in assay [6] it was 0.604 ± 0.012. Moreover, the “stoichiometry N” value in assay [7] was 0.766 ± 0.011.
